The values that follow are results of earlier work, collected in article PMC7590224.

pKd: −log10 of the molar value.

This series concerns hLarp7 xRRM domain (human). To be noted: No direct binding assays in this paper (only in vivo E. coli suppressor tRNA reporter assays, left out); conditions of the cited Kd values not given. For orientation: In a reporter assay the amount or activity of a reporter protein is the signal.

A word on the pKd: it is the negative decadic logarithm of the Kd, by convention in mol/L. Turning to 7SK SL4 U311A, the pKd is 7.29.
Turning to 7SK RNA stem-loop 4 (SL4), the pKd was 6.89.
